In paper doi:10.1101/2022.04.27.489770 one finds fold reduction of co-immunoprecipitation against wild-type Spt6 data, which are given here for one molecule.

This experiment has as its target Spt6-YW with a C-terminal 3XFLAG epitope tag (S. cerevisiae) (UniProt P23615). In words: co-IP.
Sequence of UniProt P23615 (P23615 whole entry): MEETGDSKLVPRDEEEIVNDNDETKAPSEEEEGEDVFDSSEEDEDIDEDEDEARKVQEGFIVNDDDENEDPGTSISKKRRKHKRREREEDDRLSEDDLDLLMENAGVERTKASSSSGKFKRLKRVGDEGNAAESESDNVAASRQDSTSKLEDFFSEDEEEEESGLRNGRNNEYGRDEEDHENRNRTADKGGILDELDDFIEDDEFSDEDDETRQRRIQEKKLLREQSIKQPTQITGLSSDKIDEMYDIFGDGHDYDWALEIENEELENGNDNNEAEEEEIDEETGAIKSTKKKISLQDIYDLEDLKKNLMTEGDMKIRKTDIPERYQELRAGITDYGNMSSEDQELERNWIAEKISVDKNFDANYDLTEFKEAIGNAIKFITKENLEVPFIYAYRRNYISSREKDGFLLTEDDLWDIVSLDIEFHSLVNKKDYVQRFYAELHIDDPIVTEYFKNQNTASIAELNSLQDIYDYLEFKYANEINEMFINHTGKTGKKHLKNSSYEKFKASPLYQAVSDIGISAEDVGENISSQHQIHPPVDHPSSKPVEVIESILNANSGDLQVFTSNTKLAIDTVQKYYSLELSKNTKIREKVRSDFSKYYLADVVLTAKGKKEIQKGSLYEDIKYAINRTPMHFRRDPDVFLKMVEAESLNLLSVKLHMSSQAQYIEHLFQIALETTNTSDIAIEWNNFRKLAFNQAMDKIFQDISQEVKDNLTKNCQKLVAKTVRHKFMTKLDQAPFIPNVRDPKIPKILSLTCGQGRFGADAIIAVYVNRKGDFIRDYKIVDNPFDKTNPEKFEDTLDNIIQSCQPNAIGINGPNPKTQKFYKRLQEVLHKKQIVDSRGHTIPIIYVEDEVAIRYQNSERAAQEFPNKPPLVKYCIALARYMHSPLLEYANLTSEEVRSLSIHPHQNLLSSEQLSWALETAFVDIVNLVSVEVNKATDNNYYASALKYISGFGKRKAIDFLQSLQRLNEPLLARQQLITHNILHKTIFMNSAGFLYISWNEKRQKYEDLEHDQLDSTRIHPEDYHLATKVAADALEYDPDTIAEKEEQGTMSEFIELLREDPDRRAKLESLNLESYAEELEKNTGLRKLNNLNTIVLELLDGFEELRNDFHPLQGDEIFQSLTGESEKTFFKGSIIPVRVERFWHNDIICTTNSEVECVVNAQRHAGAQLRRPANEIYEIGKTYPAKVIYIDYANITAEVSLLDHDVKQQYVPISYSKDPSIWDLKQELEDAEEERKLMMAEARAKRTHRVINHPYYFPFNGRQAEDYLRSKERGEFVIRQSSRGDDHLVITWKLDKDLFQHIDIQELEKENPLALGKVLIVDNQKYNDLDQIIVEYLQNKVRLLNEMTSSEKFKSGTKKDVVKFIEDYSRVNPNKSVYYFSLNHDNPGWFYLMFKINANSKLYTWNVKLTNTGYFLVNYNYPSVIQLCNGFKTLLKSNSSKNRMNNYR

B1: Mcm4-V5 (natural protein)
chain: MSQQSSSPTKEDNNSSSPVVPNPDSVPPQLSSPALFYSSSSSQGDIYGRNNSQNLSQGEGNIRAAIGSSPLNFPSSSQRQNSDVFQSQGRQGRIRSSASASGRSRYHSDLRSDRALPTSSSSLGRNGQNRVHMRRNDIHTSDLSSPRRIVDFDTRSGVNTLDTSSSSAPPSEASEPLRIIWGTNVSIQECTTNFRNFLMSFKYKFRKILDEREEFINNTTDEELYYIKQLNEMRELGTSNLNLDARNLLAYKQTEDLYHQLLNYPQEVISIMDQTIKDCMVSLIVDNNLDYDLDEIETKFYKVRPYNVGSCKGMRELNPNDIDKLINLKGLVLRSTPVIPDMKVAFFKCNVCDHTMAVEIDRGVIQEPARCERIDCNEPNSMSLIHNRCSFADKQVIKLQETPDFVPDGQTPHSISLCVYDELVDSCRAGDRIEVTGTFRSIPIRANSRQRVLKSLYKTYVDVVHVKKVSDKRLDVDTSTIEQELMQNKVDHNEVEEVRQITDQDLAKIREVAAREDLYSLLARSIAPSIYELEDVKKGILLQLFGGTNKTFTKGGRYRGDINILLCGDPSTSKSQILQYVHKITPRGVYTSGKGSSAVGLTAYITRDVDTKQLVLESGALVLSDGGVCCIDEFDKMSDSTRSVLHEVMEQQTISIAKAGIITTLNARSSILASANPIGSRYNPNLPVTENIDLPPPLLSRFDLVYLVLDKVDEKNDRELAKHLTNLYLEDKPEHISQDDVLPVEFLTMYISYAKEHIHPIITEAAKTELVRAYVGMRKMGDDSRSDEKRITATTRQLESMIRLAEAHAKMKLKNVVELEDVQEAVRLIRSAIKDYATDPKTGKIDMNLVQTGKSVIQRKLQEDLSREIMNVLKDQASDSMSFNELIKQINEHSQDRVESSDIQEALSRLQQEDKVIVLGEGVRRSVRLNNRV
Take B1: the fold reduction of co-immunoprecipitation against wild-type Spt6 stood at 2 fold.
